This note sets out measurements from patent US20110300157A1 (DYAX, published 2011).

Assay [1] concerns the target T1, h-MMP-9/h-TIMP-1 complex (human, UniProt P14780 107-444; P01033 24-207, limits assumed).
T1 construct: also called huTIMP-1/cat-huMMP-9; MMP-9/TIMP-1 complex
Kind of assay: SPR Biacore 3000, antibody amine-coupled to CM5 chip (direct capture). How it is done: (§1) Experiments were performed at 25° C. with the help of a Biacore 3000 instrument. The MMP-9 binding protein (M0166F10) and the M0237-D02 antibody were coated to a CM5 chip either via standard amine coupling or using an anti-Fc antibody surface. Then either the active, human MMP-9 catalytic domain (BIOMOL, SE-244), the human pro-MMP-9 (R&D, 911-MP), the human TIMP-1 (R&D, 970-TM) or a h-MMP-9/h-TIMP-1 complex were flowed over the antibody surfaces, and binding was recorded.
(§2) It was shown that the human MMP-9 catalytic domain binds to M0166-F10, whether this antibody is directly captured via amine coupling or captured with an anti-Fc antibody surface.
(Surface plasmon resonance follows binding to a sensor surface in real time, without labels.)

In assay [2] the target is T2, human pro-MMP-9 (R&D, 911-MP) (human, UniProt P14780 20-707).
T2 construct: Zymogen form; also called Pro-huMMP-9
The assay is described as above. How it is done: as §1, §2

For assay [3], the target named is T3, human TIMP-1 (R&D, 970-TM) (human, UniProt P01033 24-207).
T3 construct: also called huTIMP-1; h-TIMP-1
The description is as above. How it is done: as §1, §2

Assay [4] has as its target T4, active human MMP-9 catalytic domain (BIOMOL, SE-244) (human, UniProt P14780 107-444, limits assumed).
T4 construct: domain: catalytic domain; also called Cat-huMMP-9; cat-huMMP-9
In words: enzyme inhibition with fluorogenic peptide substrate Mca-KPLGL-Dap(Dnp)-AR-NH2; Ki from IC50 vs substrate concentration, 30 C. How it is done: (§3) Materials: [0424] Substrate: Mca-KPLGL-Dap(Dnp)-AR-NH₂ (M-2350) from BACHEM (521575). A 10 mM stock solution was prepared in DMSO. [0425] Enzymes: [0426] Human MMP-9 catalytic domain (BIOMOL, SE-244). Enzyme concentration was measured by titration with TIMP-1 (2522-104) [0427] Mouse MMP-9 (R&D, 909-MM), APMA-activated. [0428] M0237-D02 hIgG1: 2517-014. Dialysed against TCN. [0429] TCNB: 50 mM Tris/HCl, 10 mM CaCl₂, 150 mM NaC, […] Brij 35, pH 7.5. [0430] 96-well black plates from Perkin Elmer (6005270) [0431] Spectramax M2e to measure fluorescence emission of the substrate upon hydrolysis (temperature control set at 30° C.; λexc=328 nm and λₑₘ=393 nm)
(§4) The enzyme (final concentration=0.23 and 0.17 nM for the human and mouse MMP-9, respectively) was preincubated with various concentrations (0-50 nM) of M0237-D02 for 1 h at 30° C. The substrate was then added to a final concentration ranging from 5 to 40 μM and initial rates were recorded.

The target in assay [5] is Mouse MMP-9 (R&D, 909-MM), APMA-activated (mouse, UniProt P41245 108-730, limits assumed). Described as above. How it is done: as §3, §4
Assay [6] concerns the target T4, active human MMP-9 catalytic domain …. Kind of assay: plot of kobs vs antibody concentration from inhibition progress curves, 25 C. How it is done: Materials: [0447] Substrate: Mca-KPLGL-Dap(Dnp)-AR-NH₂ (M-2350) from BACHEM (521575). A 10 mM stock solution was prepared in DMSO. [0448] Human MMP-9 catalytic domain (BIOMOL, SE-244). [0449] M0237-D02 hIgG1: 2517-068. [0450] All measurements were performed at 25° C. in TCNB: 50 mM Tris/HCl, 10 mM CaCl₂, 150 mM NaCl 0.05% Brij 35, pH 7.5. [0451] 96-well black plates from Perkin Elmer (6005270) [0452] Spectramax M2e to measure fluorescence emission of the substrate upon hydrolysis (λexc=328 nm and λₑₘ=393 nm)
The enzyme (at a final concentration ranging from 1.5 to 12.3 nM), the substrate (9 μM final) and the M0237-D02 antibody were mixed, and the fluorescence was immediately recorded in order to follow the hydrolysis of the substrate. The observed inhibition rate (kobs) was obtained by analyzing the progress curves with a single exponential. The value for kₒₙ and koff were calculated from the plot of the kobs vs. the antibody concentration using the following equation: […]

T4 sequence (P14780 107-444 limits assumed): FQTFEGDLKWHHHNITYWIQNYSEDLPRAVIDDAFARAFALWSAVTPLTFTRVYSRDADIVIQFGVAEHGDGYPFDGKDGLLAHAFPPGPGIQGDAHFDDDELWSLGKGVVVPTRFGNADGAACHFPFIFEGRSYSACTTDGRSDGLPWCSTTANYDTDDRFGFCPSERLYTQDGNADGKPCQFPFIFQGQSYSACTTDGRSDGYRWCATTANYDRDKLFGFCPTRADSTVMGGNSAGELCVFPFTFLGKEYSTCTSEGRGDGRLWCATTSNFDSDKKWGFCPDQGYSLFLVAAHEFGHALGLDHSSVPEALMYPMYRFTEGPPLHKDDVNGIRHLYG
T1 sequence (P14780 107-444 limits assumed, chain 1 of 2): as the sequence (P14780 107-444 limits assumed) above
T1 sequence (P01033 24-207 limits assumed, chain 2 of 2): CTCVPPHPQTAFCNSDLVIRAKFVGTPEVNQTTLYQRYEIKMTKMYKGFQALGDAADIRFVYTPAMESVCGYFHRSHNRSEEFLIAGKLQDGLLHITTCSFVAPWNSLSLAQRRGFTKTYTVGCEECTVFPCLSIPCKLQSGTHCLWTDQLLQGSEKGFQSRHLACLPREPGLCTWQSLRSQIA
Chain of Mouse MMP-9 (R&D, 909-MM), APMA-activated (P41245 108-730 limits assumed): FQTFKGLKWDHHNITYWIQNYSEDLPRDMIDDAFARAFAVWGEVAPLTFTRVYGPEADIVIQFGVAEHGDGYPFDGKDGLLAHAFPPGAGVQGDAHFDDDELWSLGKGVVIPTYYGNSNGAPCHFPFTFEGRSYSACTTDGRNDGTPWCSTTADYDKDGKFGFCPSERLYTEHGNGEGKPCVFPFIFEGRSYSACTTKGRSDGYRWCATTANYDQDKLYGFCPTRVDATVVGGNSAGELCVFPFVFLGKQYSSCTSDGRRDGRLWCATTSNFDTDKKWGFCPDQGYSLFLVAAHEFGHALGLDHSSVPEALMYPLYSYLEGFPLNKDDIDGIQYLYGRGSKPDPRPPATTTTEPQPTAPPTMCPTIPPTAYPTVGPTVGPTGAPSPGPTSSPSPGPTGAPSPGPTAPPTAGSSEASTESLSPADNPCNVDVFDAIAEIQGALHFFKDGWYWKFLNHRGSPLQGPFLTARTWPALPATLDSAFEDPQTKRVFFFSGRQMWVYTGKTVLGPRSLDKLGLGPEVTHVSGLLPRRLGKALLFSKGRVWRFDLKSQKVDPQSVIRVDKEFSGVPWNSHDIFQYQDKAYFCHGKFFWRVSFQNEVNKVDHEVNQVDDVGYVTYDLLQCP
T2 sequence (P14780 20-707): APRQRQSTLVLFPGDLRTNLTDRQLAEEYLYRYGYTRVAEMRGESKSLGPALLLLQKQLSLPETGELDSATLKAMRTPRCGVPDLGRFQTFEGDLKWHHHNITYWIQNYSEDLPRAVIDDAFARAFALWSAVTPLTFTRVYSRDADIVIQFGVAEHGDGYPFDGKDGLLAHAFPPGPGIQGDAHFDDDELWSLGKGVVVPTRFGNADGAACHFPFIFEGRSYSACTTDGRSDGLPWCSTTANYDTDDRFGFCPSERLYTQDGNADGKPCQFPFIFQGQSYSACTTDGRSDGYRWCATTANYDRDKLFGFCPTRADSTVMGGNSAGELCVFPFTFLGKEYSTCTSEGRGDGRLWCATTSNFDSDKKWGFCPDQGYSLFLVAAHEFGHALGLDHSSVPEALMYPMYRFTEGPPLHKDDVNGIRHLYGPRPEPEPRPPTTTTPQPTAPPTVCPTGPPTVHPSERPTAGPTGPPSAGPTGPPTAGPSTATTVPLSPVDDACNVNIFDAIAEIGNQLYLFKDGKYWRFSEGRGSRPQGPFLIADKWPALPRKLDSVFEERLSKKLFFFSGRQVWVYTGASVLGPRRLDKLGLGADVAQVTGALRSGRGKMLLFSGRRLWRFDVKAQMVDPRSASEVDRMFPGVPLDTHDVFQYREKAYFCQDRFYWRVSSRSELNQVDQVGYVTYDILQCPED
T3 sequence (P01033 24-207 limits assumed): as the sequence (P01033 24-207 limits assumed, chain 2 of 2) above

B1: 539A-M0166-F10 (antibody, V domains shown)
VH: EVQLLESGGGLVQPGGSLRLSCAASGFTFSPYLMNWVRQAPGKGLEWVSSIYSSGGGTGYADSVKGRFTISRDNSKNTLYLQMNSLRAEDTAVYYCARIYHSSSGPFYGMDVWGQGTTVTVSS
VL: QSELTQPPSASAAPGQRVTISCSGSSSNIGSNTVTWYQKLPGTAPKLLIYNNYERPSGVPARFSGSKSGTSASLAISGLQSEDEADYYCATWDDSLIANYVFGSGTKVTVLG
notes: also called DL15
Consider B1, for which the binding result in assay [1], in assay [2] and in assay [3] was “no binding” in each case.

B2: 539A-M0237-D02 hIgG1 (antibody, V domains shown)
VH: EVQLLESGGGLVQPGGSLRLSCAASGFTFSQYPMWWVRQAPGKGLEWVSYIVPSGGRTYYADSVKGRFTISRDNSKNTLYLQMNSLRAEDTAVYYCAKDRAYGDYVGWNGFDYWGQGTLVTVSS
VL: DIQMTQSPATLSLSPGERATLSCRASQSISSFLAWYQQKPGQAPRLLIYDASYRATGIPARFSGSGSGTDFTLTISSLEPEDYAVYYCQQRGNWPITFGQGTRLEIKR
notes: Tested as hIgG1; also called M237-D02; DL8
Molecule B2 returned a Ki in assay [4] of 0.92 nM. Moreover, the affinity in assay [5], expressed as Ki, was 1.3 nM. Further, the binding result in assay [1] is reported as “no binding”. Further, in assay [6], the koff is around 0.0004 s⁻¹ and the kon was around 70000 M⁻¹ s⁻¹.

As usually defined, the Ki is a measure of affinity in units of concentration, obtained from inhibition or displacement. A higher Ki goes with lower affinity. What is called koff is the first-order rate constant of dissociation. Read a low koff as slow dissociation. As a reminder, the kon is the second-order rate constant of association. High values mean faster complex formation, low ones slower complex formation.
